Assay results reported in US20200138866A1 (XYPHOS BIOSCIENCES, published 2020).

Target: T1, Fc-NKG2D.Y152A (human)
T1 construct: also called NKG2D.YA; Fc-NKG2D.YA
Test: ELISA and Octet

T1 sequence (chain, as listed by the source Y152A Y152A limits assumed): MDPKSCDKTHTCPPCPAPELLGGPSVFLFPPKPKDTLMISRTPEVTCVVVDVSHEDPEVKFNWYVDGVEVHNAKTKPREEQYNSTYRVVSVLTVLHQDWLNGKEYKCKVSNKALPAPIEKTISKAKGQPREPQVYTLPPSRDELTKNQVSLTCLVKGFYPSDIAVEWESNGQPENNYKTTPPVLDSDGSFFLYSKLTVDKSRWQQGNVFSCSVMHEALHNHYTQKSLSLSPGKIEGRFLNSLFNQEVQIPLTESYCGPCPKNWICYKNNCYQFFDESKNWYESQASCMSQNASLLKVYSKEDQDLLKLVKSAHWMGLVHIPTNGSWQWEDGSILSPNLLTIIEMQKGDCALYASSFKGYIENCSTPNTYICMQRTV

B1: rituximab-ULBP2.S3 MicAbody (bispecific antibody, human IgG1, kappa)
heavy: not shown
light: QIVLSQSPAILSASPGEKVTMTCRASSSVSYIHWFQQKPGSSPKPWIYATSNLASGVPVRFSGSGSGTSYSLTISRVEAEDAATYYCQQWTSNPPTFGGGTKLEIKRTVAAPSVFIFPPSDEQLKSGTASVVCLLNNFYPREAKVQWKVDNALQSGNSQESVTEQDSKDSTYSLSSTLTLSKADYEKHKVYACEVTHQGLSSPVTKSFNRGECAPTSSSGGGGSEPHSLSYDITVIPKFRPGPRWCAVQGQVDEKTFLHYDCGNKTVTPVSPLGKKLNVTTAWKAQNPVLREVVDILTEQLWDIQLENYTPKEPLTLQARMSCEQKAEGHSSGSWQFSFDGQIFLLFDSEKRMWTTVHPGARKMKEKWENDKVVATKLYLWSMGDCIGWLEDFLMGMDSTLEPS
notes: also called ULPB2.S3; U2S3 MicAbody
B1: binds.
